The subject of this data set is Escherichia coli TOP10. Briefly: shrunken log2 fold change of peptide-encoding DNA abundance (4.5 h post-induction vs induction); higher = less antimicrobial activity (less host growth inhibition). As to conditions: time post-induction: 4.5 h; library: site-saturation at positions 5, 18, 19, 20.
As for RRIRPRPPRLPRPRPRPKRLPRP, the “shrunken log2 fold change” value was determined as 0.285.
The same measure for RRIRARPPRLPRPRPRPNYAPRP: -0.0399; for RRIRCRPPRLPRPRPRPASMPRP: -0.412; for RRIRFRPPRLPRPRPRPPLNPRP: 0.0971.
The same measure for RRIRLRPPRLPRPRPRPIGSPRP: -0.0107.
The same measure for RRIRDRPPRLPRPRPRPGHLPRP: -0.000122.
On to RRIRNRPPRLPRPRPRPRLCPRP, for which the “shrunken log2 fold change” value was 0.121.
The figure for RRIRERPPRLPRPRPRPNISPRP is -1.14.
Turning to RRIRVRPPRLPRPRPRPSINPRP, the “shrunken log2 fold change” value was -0.243.
The figure for RRIRHRPPRLPRPRPRPWWMPRP is 0.0619.
As to RRIRARPPRLPRPRPRPQPKPRP, the “shrunken log2 fold change” value worked out at 0.465.
The same measure for RRIRYRPPRLPRPRPRPILLPRP: -0.322.
Consider RRIRRRPPRLPRPRPRPLHHPRP, for which the “shrunken log2 fold change” value worked out at 0.31.
For RRIRSRPPRLPRPRPRPFKPPRP, the “shrunken log2 fold change” value was -0.297.
The same measure for RRIRQRPPRLPRPRPRPQCWPRP: -0.0996.
The same measure for RRIRSRPPRLPRPRPRPTFAPRP: 0.232; for RRIRGRPPRLPRPRPRPMDQPRP: 0.489; for RRIRRRPPRLPRPRPRPKNAPRP: 0.0423.
The figure for RRIRPRPPRLPRPRPRPDIEPRP is -0.215; for RRIRDRPPRLPRPRPRPLWAPRP it is 0.0876.
RRIRWRPPRLPRPRPRPWTFPRP: the “shrunken log2 fold change” value was -0.146.
Consider RRIRSRPPRLPRPRPRPLLDPRP, for which the “shrunken log2 fold change” value worked out at 0.218.
Regarding RRIRERPPRLPRPRPRPHMIPRP, the “shrunken log2 fold change” value amounted to 0.0284.
The same measure for RRIRVRPPRLPRPRPRPVIHPRP: -0.968.
Take RRIRDRPPRLPRPRPRPIGEPRP: the “shrunken log2 fold change” value was -0.00228.
With RRIRYRPPRLPRPRPRPPDCPRP, the “shrunken log2 fold change” value was -0.00396.
The figure for RRIRSRPPRLPRPRPRPMKRPRP is -0.115; for RRIRTRPPRLPRPRPRPRGLPRP it is 0.62.
The same measure for RRIRCRPPRLPRPRPRPGWKPRP: 0.173.
The same measure for RRIRPRPPRLPRPRPRPNMVPRP: -0.772.
Regarding RRIRIRPPRLPRPRPRPPLIPRP, the “shrunken log2 fold change” value was -0.512.
The figure for RRIRDRPPRLPRPRPRPEQKPRP is 0.0533; for RRIRKRPPRLPRPRPRPPHRPRP it is 0.501.
The same measure for RRIRDRPPRLPRPRPRPKPEPRP: 0.0415.
Take RRIRCRPPRLPRPRPRPTYRPRP: the “shrunken log2 fold change” value is 0.0231.
The figure for RRIRTRPPRLPRPRPRPHQLPRP is -0.313.
Consider RRIRLRPPRLPRPRPRPMWKPRP, for which the “shrunken log2 fold change” value was -0.0297.
The figure for RRIRERPPRLPRPRPRPNKTPRP is 0.0491; for RRIRDRPPRLPRPRPRPWPVPRP it is 0.531.
The figure for RRIRDRPPRLPRPRPRPFIDPRP is 0.168.
The same measure for RRIRERPPRLPRPRPRPNALPRP: -0.247; for RRIRIRPPRLPRPRPRPFYFPRP: -0.448; for RRIRRRPPRLPRPRPRPAFLPRP: -0.0132.
Regarding RRIRQRPPRLPRPRPRPKLLPRP, the “shrunken log2 fold change” value is -0.153.
On to RRIRARPPRLPRPRPRPERHPRP, for which the “shrunken log2 fold change” value worked out at 0.58.
The same measure for RRIRMRPPRLPRPRPRPRWGPRP: 0.279; for RRIRYRPPRLPRPRPRPNPMPRP: -0.788.
With RRIRARPPRLPRPRPRPKGQPRP, the “shrunken log2 fold change” value came to 0.296.
Take RRIRSRPPRLPRPRPRPPMAPRP: the “shrunken log2 fold change” value was found to be 0.169.
The figure for RRIRCRPPRLPRPRPRPYLGPRP is -0.213.
The same measure for RRIRYRPPRLPRPRPRPLCTPRP: -0.759; for RRIRVRPPRLPRPRPRPSESPRP: 0.0556.
The same measure for RRIRRRPPRLPRPRPRPPTFPRP: 0.0767; for RRIRMRPPRLPRPRPRPPAIPRP: 0.911; for RRIRMRPPRLPRPRPRPDTHPRP: 0.18.
For RRIRARPPRLPRPRPRPEIMPRP, the “shrunken log2 fold change” value was 0.43.
On to RRIRTRPPRLPRPRPRPYFQPRP, for which the “shrunken log2 fold change” value is -0.587.
The same measure for RRIRHRPPRLPRPRPRPDISPRP: -0.278; for RRIRRRPPRLPRPRPRPEDSPRP: 0.0554; for RRIRLRPPRLPRPRPRPVWVPRP: -0.0407.
The figure for RRIRGRPPRLPRPRPRPWARPRP is 0.241.
For RRIRVRPPRLPRPRPRPVDMPRP, the “shrunken log2 fold change” value is 0.00782.
The same measure for RRIRGRPPRLPRPRPRPCEGPRP: 0.364; for RRIRVRPPRLPRPRPRPIDWPRP: 0.224.
In the case of RRIRKRPPRLPRPRPRPVCCPRP, the “shrunken log2 fold change” value worked out at 0.517.
For RRIRERPPRLPRPRPRPIYYPRP, the “shrunken log2 fold change” value is -0.726.
As to RRIRIRPPRLPRPRPRPDFEPRP, the “shrunken log2 fold change” value was -0.39.
The same measure for RRIRIRPPRLPRPRPRPMNDPRP: -0.00303; for RRIRFRPPRLPRPRPRPEGMPRP: -0.0976.
The same measure for RRIRQRPPRLPRPRPRPFYMPRP: -1.52; for RRIRGRPPRLPRPRPRPYDYPRP: -0.15.
Take RRIRHRPPRLPRPRPRPNDEPRP: the “shrunken log2 fold change” value is -0.0904.
With RRIRFRPPRLPRPRPRPAILPRP, the “shrunken log2 fold change” value came to 0.0816.
The same measure for RRIRLRPPRLPRPRPRPSKNPRP: -0.296.
For the sequence RRIRQRPPRLPRPRPRPSNCPRP, the “shrunken log2 fold change” value was -0.136.
Take RRIRNRPPRLPRPRPRPSDTPRP: the “shrunken log2 fold change” value was -0.00711.
The same measure for RRIRTRPPRLPRPRPRPGETPRP: -0.105.
The same measure for RRIRNRPPRLPRPRPRPFRMPRP: 0.00572; for RRIRRRPPRLPRPRPRPFILPRP: -0.293; for RRIRARPPRLPRPRPRPWMGPRP: 0.0382.
The same measure for RRIRDRPPRLPRPRPRPISQPRP: 0.12.
For the sequence RRIRTRPPRLPRPRPRPIVKPRP, the “shrunken log2 fold change” value is -0.144.
RRIRQRPPRLPRPRPRPIHDPRP: the “shrunken log2 fold change” value was determined as 0.0242.
The same measure for RRIRHRPPRLPRPRPRPDSKPRP: -0.362.
On to RRIRGRPPRLPRPRPRPRRCPRP, for which the “shrunken log2 fold change” value was 0.548.
The figure for RRIRNRPPRLPRPRPRPVWPPRP is 0.199; for RRIRIRPPRLPRPRPRPAPNPRP it is 0.0272; for RRIRERPPRLPRPRPRPHTNPRP it is -0.466.
The same measure for RRIRSRPPRLPRPRPRPMAFPRP: -0.0285; for RRIRTRPPRLPRPRPRPVFFPRP: 0.0831.
The figure for RRIRSRPPRLPRPRPRPSMPPRP is -0.706; for RRIRSRPPRLPRPRPRPERAPRP it is 0.399; for RRIRGRPPRLPRPRPRPQLSPRP it is 0.0797.
On to RRIRARPPRLPRPRPRPMQWPRP, for which the “shrunken log2 fold change” value stood at 0.442.
Regarding RRIRRRPPRLPRPRPRPCDGPRP, the “shrunken log2 fold change” value came to 0.0965.
Turning to RRIRGRPPRLPRPRPRPRSFPRP, the “shrunken log2 fold change” value is -0.0397.
The figure for RRIRKRPPRLPRPRPRPHFFPRP is 0.101; for RRIRSRPPRLPRPRPRPHTWPRP it is -0.0472; for RRIRSRPPRLPRPRPRPVMLPRP it is -0.112.
Consider RRIRERPPRLPRPRPRPVFSPRP, for which the “shrunken log2 fold change” value is -0.191.
Consider RRIRWRPPRLPRPRPRPQEMPRP, for which the “shrunken log2 fold change” value was -0.0845.
Take RRIRERPPRLPRPRPRPHPKPRP: the “shrunken log2 fold change” value was 0.0177.
The same measure for RRIRSRPPRLPRPRPRPQFKPRP: -0.239.
The same measure for RRIRGRPPRLPRPRPRPRWRPRP: 0.973; for RRIRDRPPRLPRPRPRPCCAPRP: 0.58.
Consider RRIRCRPPRLPRPRPRPRYFPRP, for which the “shrunken log2 fold change” value is -0.529.
The same measure for RRIRTRPPRLPRPRPRPKADPRP: -0.0127; for RRIRRRPPRLPRPRPRPCSWPRP: -0.124; for RRIRTRPPRLPRPRPRPDGKPRP: -0.41.
As for RRIRLRPPRLPRPRPRPAWMPRP, the “shrunken log2 fold change” value is -0.0208.
Regarding RRIRMRPPRLPRPRPRPTVHPRP, the “shrunken log2 fold change” value was 0.102.
The same measure for RRIRERPPRLPRPRPRPMARPRP: 0.116; for RRIRIRPPRLPRPRPRPGMHPRP: 0.00513; for RRIRSRPPRLPRPRPRPLTKPRP: -0.175.
The figure for RRIRQRPPRLPRPRPRPNPQPRP is 0.129.
The figure for RRIRARPPRLPRPRPRPFFFPRP is 0.419; for RRIRKRPPRLPRPRPRPSAPPRP it is 0.504; for RRIRWRPPRLPRPRPRPYISPRP it is -0.816.
For the sequence RRIRVRPPRLPRPRPRPWAVPRP, the “shrunken log2 fold change” value was 0.157.
Consider RRIRPRPPRLPRPRPRPGRNPRP, for which the “shrunken log2 fold change” value is -0.0548.
The same measure for RRIRQRPPRLPRPRPRPHSAPRP: -0.0562; for RRIRWRPPRLPRPRPRPGHTPRP: 0.0581.
The figure for RRIRFRPPRLPRPRPRPRPNPRP is 0.4; for RRIRHRPPRLPRPRPRPEQNPRP it is 0.0816.
The figure for RRIRRRPPRLPRPRPRPGMGPRP is 0.581.

These data come from the supplement of paper PMC9112550, “Optimization of the antimicrobial peptide Bac7 by deep mutational scanning” (BMC Biology, 2022).
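Also: peptides expressed intracellularly from a pBAD plasmid library in pooled LB shake-flask culture, induced with 0.3% L-arabinose, DNA abundance read by NGS, three biological replicates, DESeq2 with apeglm shrinkage.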
